The results in this text go back to the RNAGym collection of RNA variant scans (doi:10.7554/elife.90254).

To fix the notation:
B1: OR4K15 (parent)
chain: GUUAACGGUCAUAGGCCAUGGAAACUAGGAGCACCAUUUCGCUGCCAGUGAAGAAAUGAACAAAGAAAAUCUGGGCCAGGCAGGCAUCAAAAGAAAUAGUCUUGCGCUCAACCAGAAAGUCUGUAAUCAUUUUAAGGGUA

The variants in this data set derive from B1. Description: self-cleavage, relative activity (ratio to wild type); higher = more cleavage; in vitro, sequencing; the parent is a self-cleaving ribozyme.
Consider C25U A86G, for which the self-cleavage was 1.2.
The value for U26C G58U was 1.48; that for A30G C113U was 0.07; that for C25A A95G was 0.89.
For the variant G29A A33G, the self-cleavage worked out at 0.88.
Then U26G A36G, with 1.37; and U26C A116U, with 0.18; and G29A A134G, with 0.51.
Then A27G G50A, with 2.45; and A30G C85U, with 0.69; and A24U U120C, with 0.8.
Then A24G U127A, with 1.53; and G29A C34U, with 1.67; and A27G U37C, with 1.27.
Take A27G A78U: the self-cleavage worked out at 0.34.
A24U U133A: the self-cleavage turned out to be 1.54.
With A30C A140G, the self-cleavage is 1.69.
A30G A125G: the self-cleavage amounted to 0.87.
As to A24U U37C, the self-cleavage was found to be 1.82.
With A24G U131A, the self-cleavage is 1.22.
Take A27U U57C: the self-cleavage was found to be 1.25.
Turning to A24U U127C, the self-cleavage amounted to 1.36.
The value for U26C A69C was 1.74.
The value for U26C A117G was 1.36.
Take U26C A117U: the self-cleavage was 0.5.
Then A27G U100C, with 1.8; and U26C U49C, with 1.41; and G28U A52G, with 1.37.
For the variant A27G A126G, the self-cleavage came out at 0.8.
For A27G C105A, the self-cleavage worked out at 0.04.
For A27G U133C, the self-cleavage was found to be 1.58.
In the case of C25A U122A, the self-cleavage came to 0.94.
As to G28U A69G, the self-cleavage is 1.57.
On to A24G U130C, for which the self-cleavage worked out at 1.38.
Take A24G U130G: the self-cleavage was 0.56.
The value for A27U A52U was 2; that for U26C G93U was 0.86.
As to A27G U102C, the self-cleavage is 1.06.
In the case of C25U U100C, the self-cleavage stood at 2.01.
On to U26A A117G, for which the self-cleavage was 1.78.
As to G28U A62G, the self-cleavage stood at 1.64.
The value for U26C A96U was 1.89.
The value for A27G A54G was 1.37.
The value for G28A A64G was 1.4; that for A27G A96G was 1.1; that for A27U U132C was 1.39.
With A24U A114C, the self-cleavage worked out at 0.04.
Regarding A24U A114U, the self-cleavage was determined as 0.22.
Then A27G A140G, with 1; and G28U A89U, with 2.26.
Then A30G A117G, with 1.48; and G28A A140G, with 2.
Then A30G A60G, with 0.96.
On to A24U A56G, for which the self-cleavage worked out at 2.25.
Take U26A A66C: the self-cleavage worked out at 0.9.
As to U26C A91G, the self-cleavage came to 1.26.
For the variant A30C U132C, the self-cleavage stood at 1.12.
Then G29U A78G, with 0.24.
For G29U A78U, the self-cleavage turned out to be 0.35.
Then G28A C88U, with 2.33.
As for A27G U124C, the self-cleavage came to 0.9.
For the variant C25U A47U, the self-cleavage was 1.35.
With U26C U70A, the self-cleavage was determined as 0.63.
Consider U26C U70C, for which the self-cleavage worked out at 0.38.
As to A24U A111G, the self-cleavage amounted to 0.03.
For the variant U26A A118G, the self-cleavage is 0.34.
Regarding A27U G79U, the self-cleavage came to 0.09.
Consider A30G A54U, for which the self-cleavage was 1.33.
The value for U26C A111G was 0.03; that for U26G U127A was 1.82.
Regarding A30C U130C, the self-cleavage was 1.21.
With C25U A94U, the self-cleavage is 1.62.
Then A24U C71A, with 0.49; and U26A A54C, with 1.61.
For G29U A33G, the self-cleavage is 1.58.
With G28A A114U, the self-cleavage came out at 0.18.
The value for G28A A33G was 0.69; that for A27U U38C was 1.83; that for A30G C128U was 1.78.
The value for G28C U130C was 0.64; that for C25U A60G was 1.88.
Then A27G U132C, with 0.79.
For A30G A33U, the self-cleavage came out at 1.18.
G28A U108A: the self-cleavage was 0.01.
The value for A24U A96G was 0.87; that for A30G C61U was 0.84; that for A24U A55U was 0.93.
Then A27G A66C, with 1.24.
Then C25U U49C, with 1.45; and A27U A90G, with 0.74.
Turning to A30G A68U, the self-cleavage stood at 1.28.
The value for A27G G104A was 0.02; that for U26A U122C was 0.72.
The value for U26A U122A was 0.73; that for A30G A111U was 0.05; that for A27G U43C was 1.41.
The value for G28A A52U was 1.15.
As to U26A A56G, the self-cleavage turned out to be 1.7.
Then A27U C61U, with 0.58; and A30G A62G, with 1.07.
The value for A30G A62U was 1.29; that for U26C C76U was 0.09.
For the variant U26C A126G, the self-cleavage is 0.72.
Then A24U C76U, with 0.06; and A27U G115A, with 0.07; and A30G A67C, with 1.15.
The value for A27G U103A was 0.45; that for U26A A78U was 0.43.
Then U26A A78G, with 0.17; and U26C A64G, with 0.74.
On to A27U A62G, for which the self-cleavage worked out at 1.61.
Then A27C A135U, with 2.25; and A24G U122C, with 0.84.
The value for A24G U122A was 1.19; that for A27G A98G was 0.77.
The value for U26A A89G was 1.53.
As to A27G A33C, the self-cleavage worked out at 1.32.
Then A30G A118G, with 1.2.
Then A30G A118U, with 0.62; and A24U, with 1.41.
On to A24U U49C, for which the self-cleavage came to 0.58.
The value for A30G A140G was 1.34; that for A24U A59G was 1.28; that for G29A C40A was 1.82.
Then G29U A62G, with 1.65; and A27G A67U, with 2.19; and A27U A114U, with 0.14.
Regarding G29U, the self-cleavage came out at 1.83.
Then G29C, with 1.78; and G29A, with 1.82; and U26C A33G, with 0.84.
Then U26C U57C, with 1.44; and C25U A51G, with 2.48; and G28U A30G, with 1.48.
Then U26C U38C, with 1.45; and A27G A95C, with 0.48; and G29U A111G, with 0.05.
A27G A90G: the self-cleavage was determined as 1.41.
Then A27G A62U, with 1.15; and A27G A62G, with 1.46.
Then U26C A89U, with 0.5; and A27U A56G, with 1.21.
Then A24U U122C, with 1.08; and G29A U122C, with 1.08.
On to A24U A117G, for which the self-cleavage came to 1.85.
Regarding A27G A36U, the self-cleavage was 0.85.
On to A30G C32U, for which the self-cleavage is 0.93.
Then A24U U131A, with 0.43.
The value for U26C U72C was 0.07.
Then U26C U72A, with 0.33.
As to A24U A67U, the self-cleavage amounted to 1.89.
Consider G29A A78U, for which the self-cleavage was found to be 0.14.
Regarding G29A A78C, the self-cleavage is 0.33.
Then A27G A89U, with 2.
The value for A27G A111U was 0.04.
The value for G28A A91G was 1.19.
Consider U26C A52U, for which the self-cleavage came out at 0.88.
Then U26C A52G, with 1.82.
The value for C25U A33G was 1.12; that for C25U A30G was 1.24; that for U26A was 1.07.
Then U26G, with 1.33; and U26C, with 1.26.
G28U A135C: the self-cleavage was found to be 2.26.
Then A24U C105U, with 0.17.
The value for U26C A30G was 1.25.
With A30G A134G, the self-cleavage came to 0.98.
